Among the data in the supplement of paper PMC10567573 are protein stability index values, retold here.

The series in a line: protein stability index of a GFP-peptide fusion (GPS, HEK-293T) (PSI 1-6); higher = more stable. The conditions noted are these: c terminus: a fixed tail appended.

± gives the standard deviation.
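Also: 24-mer peptide tiles fused after GFP, lentivirally expressed, FACS-sorted into six equal bins by GFP/DsRed ratio, decoded by Illumina sequencing, PSI is the read-weighted mean bin number.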

As for PNPGFSMLDFLSERPWIKRMIFKL [APMAP], the protein stability index runs as follows: (treatment: DMSO) 2.05 ± 0.2; (treatment: MLN4924 1 uM, 8 h) 2.36 ± 0.66.

In the case of SKAKPKPPKQAQKEQRKQMKGRGQ [TBC1D10A], the protein stability index by setting is: (treatment: DMSO) 5.02 ± 0.23; (treatment: MLN4924 1 uM, 8 h) 5.08 ± 0.31.

Take LTASGDGTCALWDVESGQLLQSFH [GNB5]: the protein stability index (treatment: DMSO) was determined as 2.67 ± 0.36 and the protein stability index (treatment: MLN4924 1 uM, 8 h) worked out at 2.76 ± 0.24.

DTLQNDYFAIKQEVVTPDNMCMGR [ETS1]: the protein stability index was 3.65 ± 0.31 (treatment: DMSO) and 4.05 ± 0.45 (treatment: MLN4924 1 uM, 8 h).

For the sequence SLGQMKELGVIFYNCSCLVLDLQR [PLD5], the protein stability index reads like this: (treatment: DMSO) 2.44 ± 0.64; (treatment: MLN4924 1 uM, 8 h) 2.93 ± 0.48.

Sequence GCSLTADGLPLHFFIQTVRPKDTV [MYORG] registered a protein stability index (treatment: DMSO) of 2.3 ± 0.25 and a protein stability index (treatment: MLN4924 1 uM, 8 h) of 2.19 ± 0.33.

On to FVCQCYSGYALAEDGKRCVAVDYC [MATN2], for which the protein stability index was 2.29 ± 0.93 (treatment: DMSO) and 2.77 ± 0.46 (treatment: MLN4924 1 uM, 8 h).

Turning to GHCLLDKPEAPLHLPVTFPGKDYD [ADAMTS4], the protein stability index (treatment: DMSO) worked out at 4.14 ± 0.26 and the protein stability index (treatment: MLN4924 1 uM, 8 h) is 4.4 ± 0.3.

With TGDPLPEISKDNSCKENCTCSSCL [EDARADD], the protein stability index is, setting by setting: (treatment: DMSO) 5.47 ± 0.3; (treatment: MLN4924 1 uM, 8 h) 5.47 ± 0.26.

On to ETSVVAQFGIKDVFDNAIRAALIS [RHOBTB2], for which the protein stability index (treatment: DMSO) came to 2.28 ± 0.19 and the protein stability index (treatment: MLN4924 1 uM, 8 h) is 2.38 ± 0.38.

Take SASEEEDTKPKPTKRKRKGSSAVG [INTS3]: the protein stability index (treatment: DMSO) worked out at 5.23 ± 0.23 and the protein stability index (treatment: MLN4924 1 uM, 8 h) was found to be 5.38 ± 0.16.

For SGKESPPVSDTPDEGDEPMPIPED [IKZF1], the protein stability index is, setting by setting: (treatment: DMSO) 5.866 ± 0.015; (treatment: MLN4924 1 uM, 8 h) 5.71 ± 0.38.

As for VSRRTSEACMTHLHYKWIPVEDSH [DUSP5], the protein stability index reads like this: (treatment: DMSO) 3.04 ± 0.34; (treatment: MLN4924 1 uM, 8 h) 3.08 ± 0.21.

As to EGEADHSGYAGELGFRAFSGSGNR [UFD1], the protein stability index by setting is: (treatment: DMSO) 4.63 ± 0.25; (treatment: MLN4924 1 uM, 8 h) 4.69 ± 0.54.

For the sequence DINREQLNDIFHLLKSHTNVLSVN [TPH1], the protein stability index (treatment: DMSO) stood at 2.18 ± 0.17 and the protein stability index (treatment: MLN4924 1 uM, 8 h) was found to be 2.27 ± 0.23.

Regarding CYLSFPDSNSGCLGDTQFCFRFRQ [DENND6A], the protein stability index amounted to 2.25 ± 0.28 (treatment: DMSO) and 2.4 ± 0.63 (treatment: MLN4924 1 uM, 8 h).

For the sequence KIGDTKRNTPIEALCENFPEEMAT [CSNK1G1], the protein stability index was 5.14 ± 0.2 (treatment: DMSO) and 5.31 ± 0.2 (treatment: MLN4924 1 uM, 8 h).

Regarding PATTVTSPNSTPAKTIDTSPPVDL [SNAP91], the protein stability index by setting is: (treatment: DMSO) 5.25 ± 0.23; (treatment: MLN4924 1 uM, 8 h) 5.25 ± 0.19.

Take GMDDFLGVYSMPAGTKVFEVPEMS [TLE6]: the protein stability index is, setting by setting: (treatment: DMSO) 3.08 ± 0.23; (treatment: MLN4924 1 uM, 8 h) 3.15 ± 0.25.

With LQDVIMQVADVPEKPRVPAFACQV [ZNF511], the protein stability index worked out at 2.37 ± 0.28 (treatment: DMSO) and 2.69 ± 0.21 (treatment: MLN4924 1 uM, 8 h).

For the sequence QERPRPEPGRLGSSSPASVTTEQL [PXN], the protein stability index amounted to 5.29 ± 0.3 (treatment: DMSO) and 5.12 ± 0.39 (treatment: MLN4924 1 uM, 8 h).

Turning to DLVTGGELFEDIVAREYYSEADAS [CAMK2B], the protein stability index runs as follows: (treatment: DMSO) 4.73 ± 0.2; (treatment: MLN4924 1 uM, 8 h) 4.52 ± 0.34.

Consider LRGLPGERGTPGLPGPKGDDGKLG [SCARA5], for which the protein stability index is, setting by setting: (treatment: DMSO) 4.96 ± 0.33; (treatment: MLN4924 1 uM, 8 h) 4.96 ± 0.19.

Consider ESIRRAQVSQVKGAARLALLQGAG [FCHSD1], for which the protein stability index came out at 3.45 ± 0.12 (treatment: DMSO) and 3.36 ± 0.52 (treatment: MLN4924 1 uM, 8 h).

Take FMGTISDVKTNVQLLKGRVDNIST [CD207]: the protein stability index reads like this: (treatment: DMSO) 3.02 ± 0.22; (treatment: MLN4924 1 uM, 8 h) 3.12 ± 0.32.

Regarding SSPPQGASPVPESSLTADLLSVDA [SNAP91], the protein stability index came to 5.28 ± 0.18 (treatment: DMSO) and 5.34 ± 0.16 (treatment: MLN4924 1 uM, 8 h).

For the sequence MTTTFLQTSSSTFGGGSTRGGSLL [KRT15], the protein stability index reads like this: (treatment: DMSO) 2.8 ± 0.35; (treatment: MLN4924 1 uM, 8 h) 2.97 ± 0.46.

Regarding EELEAKRLQCPFEQELLRRQQRLN [FAM107A], the protein stability index by setting is: (treatment: DMSO) 4.59 ± 0.15; (treatment: MLN4924 1 uM, 8 h) 4.63 ± 0.21.

Consider CIRLWKYALDMQQSNLEPLSPMTA [FEM1A], for which the protein stability index (treatment: DMSO) stood at 2.52 ± 0.54 and the protein stability index (treatment: MLN4924 1 uM, 8 h) was 2.34 ± 0.35.

Consider KIKVRFSFFLQIYLIMIFLGLYIN [HACD3], for which the protein stability index is, setting by setting: (treatment: DMSO) 3 ± 0.73; (treatment: MLN4924 1 uM, 8 h) 2.29 ± 0.96.

ALARLGTVTVISPLELMRTKLQAQ [SLC25A39]: the protein stability index by setting is: (treatment: DMSO) 2.18 ± 0.39; (treatment: MLN4924 1 uM, 8 h) 2.15 ± 0.72.

Consider TVVKSLIDNSSEIEDEDQILENSS [FAN1], for which the protein stability index reads like this: (treatment: DMSO) 5.202 ± 0.02; (treatment: MLN4924 1 uM, 8 h) 5.38 ± 0.13.

In the case of FLEEAHEWNQKRARKAMRNGISPI [N4BP2L1], the protein stability index by setting is: (treatment: DMSO) 3.1 ± 0.29; (treatment: MLN4924 1 uM, 8 h) 3.18 ± 0.34.

Take LEVSQLEGSLQQPKAQSAMSPYLV [SMG5]: the protein stability index runs as follows: (treatment: DMSO) 3.37 ± 0.21; (treatment: MLN4924 1 uM, 8 h) 3.46 ± 0.21.

Take SGIPEVKCYLNGVKVPGIVRLRTL [CLCN6]: the protein stability index reads like this: (treatment: DMSO) 2.4 ± 0.53; (treatment: MLN4924 1 uM, 8 h) 1.91 ± 0.35.

In turn, EMFPAAQQLYRHGKAYRFLFGFSA [JAGN1] displayed a protein stability index (treatment: DMSO) of 2.5 ± 0.56 and a protein stability index (treatment: MLN4924 1 uM, 8 h) of 2.31 ± 0.29.
